B1: monoclonal antibody 16F6 (murine IgG1) (antibody, V domains shown)
VH: EVQLVESGGGLVTPGGSLKLSCAASGFAFNYYDMFWVRQNTEKRLEWVAYINSGGGNTYYPDTVKGRFTISRDNAKKTLFLQMSSLRSEDTAMYYCARQLYGNSFFDYWGQGTSLTVSA
VL: DIVMTQSHKFMSTSVGDRVTITCKASQDVTTAVAWYQQKPGHSPKLLIYWASTRHTGVPDRFTGSGSGTDFTLTLNSVQAEDLALYYCQQHYSTPLTFGAGTKLELK
notes: also called mAb 16F6; MAb 16F6

Experiments:
[1] = target: Zaire ebolavirus (ZEBOV) GP (Zaire ebolavirus) (UniProt Q05320); assay: cell-based or functional assay
[2] = target: T1, Zaire ebolavirus (ZEBOV) GP (Zaire ebolavirus, UniProt Q05320 33-676); assay: flow cytometry on infected Vero cells (FIG. 15)
T1 construct: whole, on cells; also called Zaire GP
T1 sequence: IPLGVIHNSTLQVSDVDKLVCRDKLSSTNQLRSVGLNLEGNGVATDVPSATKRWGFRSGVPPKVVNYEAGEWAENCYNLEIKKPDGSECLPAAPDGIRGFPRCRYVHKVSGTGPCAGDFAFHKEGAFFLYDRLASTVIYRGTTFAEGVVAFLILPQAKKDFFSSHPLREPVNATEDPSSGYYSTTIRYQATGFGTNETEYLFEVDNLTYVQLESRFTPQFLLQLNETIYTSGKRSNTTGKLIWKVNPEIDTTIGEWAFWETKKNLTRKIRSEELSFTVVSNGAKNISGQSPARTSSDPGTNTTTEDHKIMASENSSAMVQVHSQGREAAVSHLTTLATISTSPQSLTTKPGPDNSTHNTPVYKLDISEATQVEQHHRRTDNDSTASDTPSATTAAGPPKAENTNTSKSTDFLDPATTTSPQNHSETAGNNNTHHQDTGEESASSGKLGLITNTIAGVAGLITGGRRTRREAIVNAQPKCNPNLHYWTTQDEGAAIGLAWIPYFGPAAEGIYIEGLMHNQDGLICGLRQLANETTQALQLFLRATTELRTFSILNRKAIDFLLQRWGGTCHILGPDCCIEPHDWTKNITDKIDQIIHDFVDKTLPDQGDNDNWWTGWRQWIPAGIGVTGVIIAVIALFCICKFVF

Molecule | neutralization of Zaire GP-pseudotyped VSV on 293 cells [1] | binding result [2]
monoclonal antibody KZ52 | 90% | –
B1 | – | no binding

— patent publication US20120164153A1 (GOVERNMENT OF THE UNITED STATES AS REPRESENTED BY THE …, published 2012)
